Publication PMC4267844, “The Lifestyle Switch Protein Bd0108 of Bdellovibrio bacteriovorus Is an Intrinsically Disordered Protein” (PLoS ONE, 2014)

Target: T1, Bd0109 (Bdellovibrio bacteriovorus HD100, UniProt Q6MRH5 1-550)
T1 sequence (looked up): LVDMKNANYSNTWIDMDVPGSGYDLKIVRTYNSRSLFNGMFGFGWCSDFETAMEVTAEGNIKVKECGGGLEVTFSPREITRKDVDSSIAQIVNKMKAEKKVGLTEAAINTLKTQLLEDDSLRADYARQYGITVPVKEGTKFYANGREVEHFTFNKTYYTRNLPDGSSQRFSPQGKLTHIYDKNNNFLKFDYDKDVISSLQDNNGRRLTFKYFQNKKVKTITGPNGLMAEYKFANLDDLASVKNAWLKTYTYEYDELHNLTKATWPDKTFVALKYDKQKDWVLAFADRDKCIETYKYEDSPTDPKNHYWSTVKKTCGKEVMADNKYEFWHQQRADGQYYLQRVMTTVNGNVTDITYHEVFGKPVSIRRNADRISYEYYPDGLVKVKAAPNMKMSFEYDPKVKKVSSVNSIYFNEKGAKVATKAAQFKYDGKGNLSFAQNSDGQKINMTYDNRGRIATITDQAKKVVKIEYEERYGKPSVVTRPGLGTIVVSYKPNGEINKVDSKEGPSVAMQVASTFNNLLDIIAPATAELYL
Experiment: ITC; 1.2 mM Bd0108 titrated into 0.02 mM Bd0109; VP-ITC, 25°C; 20 mM Tris pH 7.0 100 mM NaCl 1 mM β-ME; one-site model
Conditions: both partners purified

B1: Bd0108 (natural protein, Bdellovibrio bacteriovorus HD100)
chain: SHMADENANRPVNPGEDPNEAFRSTPFEATTSALGDCRECIAYRTGATTGKGSRRHDDTVSREIKGSSATPGGSEKAGTGRQ
modifications: disulfide between C56 and C59; 15N-labelled in the NMR titration
notes: tripeptide left on the mature N-terminus after thrombin cleavage of the His tag (cloning artefact); Bd0108 of Bdellovibrio bacteriovorus HD100, a 101 amino acid protein with an N-terminal Sec signal peptide; amino acids 23-101 cloned into pET28b; The assigned cloning artefacts (residues 21 and 22) in the titration point to this cytoplasmic construct and not to the PelB construct; also called …
With B1 the Kd was 45 µM, the dH was -8.7 kJ/mol and the “stoichiometry N” value was 3.1.
